Data reported in paper PMC6167752 (ACS infectious diseases, 2018).

How the values were obtained:
[1] = target: AAC(2′)-Ia (Providencia stuartii, UniProt Q52424); assay: X-ray crystal structure; format: binding
[2] = system: CN[C@@H]1[C@@H](O)[C@@H](O[C@@H]2[C@@H](O)[C@H](O[C@H]3OC(CNCCO)=CC[C@H]3N)[C@@H](N)C[C@H]2NC(=O)[C@@H](O)CCN)OC[C@]1(C)O; assay: purified protein; format: biochemical, Providencia stuartii; settings: 150 μM AcCoA, 25 mM MES pH 6, 25 °C

Sequence of AAC(2′)-Ia (Q52424 whole entry): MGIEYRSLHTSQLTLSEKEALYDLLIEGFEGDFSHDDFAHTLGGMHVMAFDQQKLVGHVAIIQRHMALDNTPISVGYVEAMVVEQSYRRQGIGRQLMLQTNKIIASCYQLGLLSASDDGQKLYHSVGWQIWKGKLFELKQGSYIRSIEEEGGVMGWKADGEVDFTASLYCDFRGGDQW

With `CC(=O)SCCNC(=O)CCNC(=O)[C@H](O)C(C)(C)COP(=O)(O)OP(=O)(O)OC[C@H]1O[C@@H](n2cnc3c(N)ncnc32)[C@H](O)[C@@H]1OP(=O)(O)O` [acetyl-coenzyme A] the X-ray crystal structure ([1]; one molecule modelled) was “one acetyl-coenzyme A, and three coenzyme A molecules was evident in difference density maps”.

For `CC(C)(COP(=O)(O)OP(=O)(O)OC[C@H]1O[C@@H](n2cnc3c(N)ncnc32)[C@H](O)[C@@H]1OP(=O)(O)O)[C@@H](O)C(=O)NCCC(=O)NCCS` [coenzyme A], the X-ray crystal structure ([1]; active site) was “one dimer contained a coenzyme A bound to each active site”.

For AAC(2′)-Ia (Providencia stuartii), the Km [2] was 370 ± 90 µM, the kcat [2] was 0.9 ± 0.1 s⁻¹ and the kcat/Km [2] was 2400 M⁻¹ s⁻¹.
